One series deals with biotinyl-Val-oxazolone. The series can be described thus: self-aminoacylation, catalytic enhancement (BVO) (fold over background); higher = more active; k-Seq, kA / k0A0; sequences stand for … in GGGAAUGGAUCCACAUCUACGAAUUC…UUCACUGCAGACUUGACGAAGCUG
Summed up: (§1)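 Mutagenized RNA pools with a 21-nt variable region (0.43 μM) reacted with each biotinyl-aminoacyl-oxazolone at 2–1250 μM. Reactions ran in 50 μL HEPES/NaCl/KCl/MgCl2/CaCl2 buffer with 5% acetonitrile, pH 6.9–7.0, for 90 minutes at room temperature. Streptavidin-captured RNA was quantified by triplicate qPCR and Illumina sequencing, and per-sequence fraction reacted was fit to a pseudo-first-order model with 1000 bootstraps. Catalytic enhancement is median kA divided by the uncatalyzed rate, the low-activity peak of a bimodal Gaussian fit.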

Another series has as its system biotinyl-Trp-oxazolone. The series can be described thus: self-aminoacylation, catalytic enhancement (BWO) (fold over background); higher = more active; k-Seq, kA / k0A0; sequences stand for … in GGGAAUGGAUCCACAUCUACGAAUUC…UUCACUGCAGACUUGACGAAGCUG
An outline of the steps: as §1

For another series, the system named is biotinyl-Met-oxazolone. The series can be described thus: self-aminoacylation, catalytic enhancement (BMO) (fold over background); higher = more active; k-Seq, kA / k0A0; sequences stand for … in GGGAAUGGAUCCACAUCUACGAAUUC…UUCACUGCAGACUUGACGAAGCUG
Summed up:
as §1

A further series relates to biotinyl-Leu-oxazolone. The series can be described thus: self-aminoacylation, catalytic enhancement (BLO) (fold over background); higher = more active; k-Seq, kA / k0A0; sequences stand for … in GGGAAUGGAUCCACAUCUACGAAUUC…UUCACUGCAGACUUGACGAAGCUG
An outline of the steps:
as §1

In another series the test system is biotinyl-Phe-oxazolone. Nature of the series: self-aminoacylation, catalytic enhancement (BFO) (fold over background); higher = more active; k-Seq, kA / k0A0; sequences stand for … in GGGAAUGGAUCCACAUCUACGAAUUC…UUCACUGCAGACUUGACGAAGCUG
An outline of the steps:
as §1

In the next series the test system is biotinyl-Ile-oxazolone. The series can be described thus: self-aminoacylation, catalytic enhancement (BIO) (fold over background); higher = more active; k-Seq, kA / k0A0; sequences stand for … in GGGAAUGGAUCCACAUCUACGAAUUC…UUCACUGCAGACUUGACGAAGCUG
Summed up: as §1

Variants at the floor of the assay were thinned out.

Turning to “AUACUUCAAACAAUCCGUCUG [Fam1A.1 aminoacylation ribozyme variant]”, the self-aminoacylation turned out to be 0.918 with biotinyl-Val-oxazolone; 1.17 with biotinyl-Trp-oxazolone; 1.05 in the series on biotinyl-Met-oxazolone; 1.09 in the series on biotinyl-Leu-oxazolone; 1.42 with biotinyl-Phe-oxazolone; 1.04 with biotinyl-Ile-oxazolone.

With “AAGUCUGCUAAUAGUCGCUAG [Fam3.1 aminoacylation ribozyme variant]”, the self-aminoacylation in the series on biotinyl-Val-oxazolone was 0.983; with biotinyl-Trp-oxazolone, 1.81; with biotinyl-Met-oxazolone, 0.995; in the series with biotinyl-Leu-oxazolone, 1.29; in the series with biotinyl-Phe-oxazolone, 3.35; in the series on biotinyl-Ile-oxazolone it was 0.989.

For the sequence “CUACUCUUCAAGCAAUCGGUC [Fam1B.1 aminoacylation ribozyme variant]”, the self-aminoacylation came out at 0.924 with biotinyl-Val-oxazolone; 11 in the series on biotinyl-Trp-oxazolone; 0.904 with biotinyl-Met-oxazolone; 1.07 in the series with biotinyl-Leu-oxazolone; 25.4 in the series with biotinyl-Phe-oxazolone; 0.859 with biotinyl-Ile-oxazolone.

In the case of “CCACACAUCAAGCAAGCGGUC [Fam1B.1 aminoacylation ribozyme variant]”, the self-aminoacylation with biotinyl-Val-oxazolone is 1.03; in the series on biotinyl-Trp-oxazolone, 0.988; in the series with biotinyl-Met-oxazolone it was 0.779; in the series on biotinyl-Leu-oxazolone, 0.901; in the series with biotinyl-Phe-oxazolone it was 0.546; in the series with biotinyl-Ile-oxazolone, 0.968.

For the sequence “AUUAACCUGGUCAUAGAGUGA [Fam2.1 aminoacylation ribozyme variant]”, the self-aminoacylation was found to be 2.55 with biotinyl-Val-oxazolone; 6.17 in the series on biotinyl-Trp-oxazolone; 4.3 in the series with biotinyl-Met-oxazolone; 4.78 in the series with biotinyl-Leu-oxazolone; 17.4 in the series with biotinyl-Phe-oxazolone; 2.31 in the series with biotinyl-Ile-oxazolone.

Consider “AUUCACCUGGGUGAUCGGGUG [Fam2.2 aminoacylation ribozyme variant]”, for which the self-aminoacylation turned out to be 4.45 with biotinyl-Val-oxazolone; 6.7 in the series on biotinyl-Trp-oxazolone; 4.39 with biotinyl-Met-oxazolone; 4.89 in the series on biotinyl-Leu-oxazolone; 24.1 in the series with biotinyl-Phe-oxazolone; 3.9 with biotinyl-Ile-oxazolone.

Turning to “GUACUUCAAACCAUCGGUCUG [Fam1A.1 aminoacylation ribozyme variant]”, the self-aminoacylation is 1.18 in the series with biotinyl-Val-oxazolone; 1.31 with biotinyl-Trp-oxazolone; 1.13 with biotinyl-Met-oxazolone; 0.918 with biotinyl-Leu-oxazolone; 2.13 in the series with biotinyl-Phe-oxazolone; 1.22 with biotinyl-Ile-oxazolone.

Take “CUACUUCAAACCAUCGUUCUG [Fam1A.1 aminoacylation ribozyme variant]”: the self-aminoacylation was 0.59 in the series with biotinyl-Val-oxazolone; 0.478 with biotinyl-Trp-oxazolone; 0.525 in the series with biotinyl-Met-oxazolone; 0.553 in the series on biotinyl-Leu-oxazolone; 0.66 in the series on biotinyl-Phe-oxazolone; 0.689 in the series on biotinyl-Ile-oxazolone.

“CCACACCUCAAGCGAUCGGUC [Fam1B.1 aminoacylation ribozyme variant]”: the self-aminoacylation in the series with biotinyl-Val-oxazolone was determined as 1.73; in the series with biotinyl-Trp-oxazolone, 1.5; with biotinyl-Met-oxazolone, 1.33; with biotinyl-Leu-oxazolone, 1.69; in the series with biotinyl-Phe-oxazolone, 1.09; in the series on biotinyl-Ile-oxazolone, 1.31.

As to “AGUACUCUGGUCAUCGAGUGA [Fam2.1 aminoacylation ribozyme variant]”, the self-aminoacylation is 3.01 in the series with biotinyl-Val-oxazolone; 3.97 with biotinyl-Trp-oxazolone; 4.15 in the series on biotinyl-Met-oxazolone; 3.94 with biotinyl-Leu-oxazolone; 11.4 with biotinyl-Phe-oxazolone; 3.14 in the series with biotinyl-Ile-oxazolone.

With “AGUACCCUGGUCAUCGACUGA [Fam2.1 aminoacylation ribozyme variant]”, the self-aminoacylation in the series on biotinyl-Val-oxazolone came to 1.07; with biotinyl-Trp-oxazolone it was 1.01; with biotinyl-Met-oxazolone, 1.1; in the series with biotinyl-Leu-oxazolone it was 0.974; in the series with biotinyl-Phe-oxazolone it was 0.572; in the series with biotinyl-Ile-oxazolone, 1.34.

Regarding “AUUACCCUGGUAAUCGAGUGU [Fam2.1 aminoacylation ribozyme variant]”, the self-aminoacylation in the series with biotinyl-Val-oxazolone is 2.22; in the series on biotinyl-Trp-oxazolone, 4.99; in the series with biotinyl-Met-oxazolone it was 5.16; in the series on biotinyl-Leu-oxazolone it was 5.04; in the series on biotinyl-Phe-oxazolone, 19.2; in the series on biotinyl-Ile-oxazolone, 2.17.

Take “AUUACCCUGGUCAUAUAGUGA [Fam2.1 aminoacylation ribozyme variant]”: the self-aminoacylation worked out at 5.51 in the series with biotinyl-Val-oxazolone; 12.4 with biotinyl-Trp-oxazolone; 11.2 with biotinyl-Met-oxazolone; 10.7 in the series on biotinyl-Leu-oxazolone; 69.1 in the series on biotinyl-Phe-oxazolone; 5.04 in the series on biotinyl-Ile-oxazolone.

On to “CUACUUCAAACAAUCGGUCCG [Fam1A.1 aminoacylation ribozyme variant]”, for which the self-aminoacylation amounted to 0.749 in the series with biotinyl-Val-oxazolone; 5.32 in the series on biotinyl-Trp-oxazolone; 0.745 with biotinyl-Met-oxazolone; 0.862 in the series on biotinyl-Leu-oxazolone; 8.83 in the series on biotinyl-Phe-oxazolone; 0.711 with biotinyl-Ile-oxazolone.

In the case of “CUACUUCAAUCAAUCGGUCUA [Fam1A.1 aminoacylation ribozyme variant]”, the self-aminoacylation stood at 0.914 in the series on biotinyl-Val-oxazolone; 7.18 in the series on biotinyl-Trp-oxazolone; 0.871 in the series with biotinyl-Met-oxazolone; 1.02 in the series with biotinyl-Leu-oxazolone; 13.7 in the series on biotinyl-Phe-oxazolone; 0.972 in the series on biotinyl-Ile-oxazolone.

Take “AUCACCCUGGUCAUCGAGUGA [Fam2.1 aminoacylation ribozyme variant]”: the self-aminoacylation in the series on biotinyl-Val-oxazolone was 11.3; with biotinyl-Trp-oxazolone, 28.4; with biotinyl-Met-oxazolone, 27.8; in the series with biotinyl-Leu-oxazolone it was 27; with biotinyl-Phe-oxazolone it was 154; with biotinyl-Ile-oxazolone, 10.6.

“GUACACCUAGGUCAUCGGGUG [Fam2.2 aminoacylation ribozyme variant]”: the self-aminoacylation in the series on biotinyl-Val-oxazolone amounted to 2.53; in the series on biotinyl-Trp-oxazolone, 4.08; with biotinyl-Met-oxazolone, 2.32; in the series on biotinyl-Leu-oxazolone, 2.69; in the series with biotinyl-Phe-oxazolone, 18.5; in the series with biotinyl-Ile-oxazolone it was 2.54.

Take “CCACACUUCAAGCAUUUGGUC [Fam1B.1 aminoacylation ribozyme variant]”: the self-aminoacylation was 0.851 with biotinyl-Val-oxazolone; 0.912 in the series with biotinyl-Trp-oxazolone; 0.691 in the series on biotinyl-Met-oxazolone; 0.77 in the series on biotinyl-Leu-oxazolone; 0.631 with biotinyl-Phe-oxazolone; 0.835 in the series on biotinyl-Ile-oxazolone.

As to “CCACACUUCAACCAAUCAGUC [Fam1B.1 aminoacylation ribozyme variant]”, the self-aminoacylation in the series on biotinyl-Val-oxazolone worked out at 1.04; with biotinyl-Trp-oxazolone it was 9.75; in the series on biotinyl-Met-oxazolone, 0.804; in the series with biotinyl-Leu-oxazolone, 1.04; in the series on biotinyl-Phe-oxazolone, 28.8; with biotinyl-Ile-oxazolone, 0.978.

With “CUAGUACAAACAAUCGGUCUG [Fam1A.1 aminoacylation ribozyme variant]”, the self-aminoacylation with biotinyl-Val-oxazolone worked out at 0.775; with biotinyl-Trp-oxazolone, 0.572; with biotinyl-Met-oxazolone, 0.725; in the series on biotinyl-Leu-oxazolone it was 0.802; in the series with biotinyl-Phe-oxazolone, 0.781; with biotinyl-Ile-oxazolone, 0.837.

On to “AUUUACCUAGGUCAUCGGAUG [Fam2.2 aminoacylation ribozyme variant]”, for which the self-aminoacylation with biotinyl-Val-oxazolone was 0.974; in the series with biotinyl-Trp-oxazolone, 0.671; in the series on biotinyl-Met-oxazolone it was 0.954; in the series with biotinyl-Leu-oxazolone it was 0.846; with biotinyl-Phe-oxazolone, 0.723; with biotinyl-Ile-oxazolone, 0.906.

As for “AUUCACCUACGUCUUCGGGUG [Fam2.2 aminoacylation ribozyme variant]”, the self-aminoacylation in the series with biotinyl-Val-oxazolone was 2.81; with biotinyl-Trp-oxazolone, 3.34; in the series with biotinyl-Met-oxazolone, 3.36; in the series with biotinyl-Leu-oxazolone, 4.28; in the series with biotinyl-Phe-oxazolone, 24; with biotinyl-Ile-oxazolone, 2.44.

For the sequence “AAUACACUGGUCAUCGAGUGA [Fam2.1 aminoacylation ribozyme variant]”, the self-aminoacylation in the series with biotinyl-Val-oxazolone worked out at 3.4; in the series on biotinyl-Trp-oxazolone, 6.47; in the series on biotinyl-Met-oxazolone, 4.13; in the series with biotinyl-Leu-oxazolone, 4.56; in the series on biotinyl-Phe-oxazolone, 8.92; in the series on biotinyl-Ile-oxazolone, 3.65.

As for “AAGUCUGCGAAUAGUCGCAAG [Fam3.1 aminoacylation ribozyme variant]”, the self-aminoacylation in the series on biotinyl-Val-oxazolone was 0.979; in the series with biotinyl-Trp-oxazolone it was 1.2; with biotinyl-Met-oxazolone, 1.76; in the series with biotinyl-Leu-oxazolone, 1.38; in the series with biotinyl-Phe-oxazolone, 8.07; in the series on biotinyl-Ile-oxazolone it was 1.

Consider “CUACGUCACACAAUCGGUCUG [Fam1A.1 aminoacylation ribozyme variant]”, for which the self-aminoacylation is 0.962 in the series with biotinyl-Val-oxazolone; 0.986 in the series on biotinyl-Trp-oxazolone; 0.943 in the series on biotinyl-Met-oxazolone; 0.98 in the series on biotinyl-Leu-oxazolone; 0.794 with biotinyl-Phe-oxazolone; 0.999 in the series with biotinyl-Ile-oxazolone.

The values are drawn from the supplement of paper PMC9233669.
